In PMC8605023 one finds IC50 and Ki data, which are given here for three substances.

One assay has as its target USP7 (human) (UniProt Q93009).
Assay [1] concerns the target MAP1LC3C ATG8 domain (human) (UniProt Q9BXW4).
Assay [2] addresses G3BP2 NTF2 domain (human) (UniProt Q9UN86).
Assay [3] deals with G3BP1 NTF2 domain (human) (UniProt Q13283).
Chain of G3BP1 NTF2 domain (human) (Q13283 11-133): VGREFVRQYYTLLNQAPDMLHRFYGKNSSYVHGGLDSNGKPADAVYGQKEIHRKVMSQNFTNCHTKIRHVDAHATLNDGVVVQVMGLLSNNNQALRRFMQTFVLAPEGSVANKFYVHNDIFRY

Chain of USP7 (human) (Q93009 whole entry, the tested form may be a part): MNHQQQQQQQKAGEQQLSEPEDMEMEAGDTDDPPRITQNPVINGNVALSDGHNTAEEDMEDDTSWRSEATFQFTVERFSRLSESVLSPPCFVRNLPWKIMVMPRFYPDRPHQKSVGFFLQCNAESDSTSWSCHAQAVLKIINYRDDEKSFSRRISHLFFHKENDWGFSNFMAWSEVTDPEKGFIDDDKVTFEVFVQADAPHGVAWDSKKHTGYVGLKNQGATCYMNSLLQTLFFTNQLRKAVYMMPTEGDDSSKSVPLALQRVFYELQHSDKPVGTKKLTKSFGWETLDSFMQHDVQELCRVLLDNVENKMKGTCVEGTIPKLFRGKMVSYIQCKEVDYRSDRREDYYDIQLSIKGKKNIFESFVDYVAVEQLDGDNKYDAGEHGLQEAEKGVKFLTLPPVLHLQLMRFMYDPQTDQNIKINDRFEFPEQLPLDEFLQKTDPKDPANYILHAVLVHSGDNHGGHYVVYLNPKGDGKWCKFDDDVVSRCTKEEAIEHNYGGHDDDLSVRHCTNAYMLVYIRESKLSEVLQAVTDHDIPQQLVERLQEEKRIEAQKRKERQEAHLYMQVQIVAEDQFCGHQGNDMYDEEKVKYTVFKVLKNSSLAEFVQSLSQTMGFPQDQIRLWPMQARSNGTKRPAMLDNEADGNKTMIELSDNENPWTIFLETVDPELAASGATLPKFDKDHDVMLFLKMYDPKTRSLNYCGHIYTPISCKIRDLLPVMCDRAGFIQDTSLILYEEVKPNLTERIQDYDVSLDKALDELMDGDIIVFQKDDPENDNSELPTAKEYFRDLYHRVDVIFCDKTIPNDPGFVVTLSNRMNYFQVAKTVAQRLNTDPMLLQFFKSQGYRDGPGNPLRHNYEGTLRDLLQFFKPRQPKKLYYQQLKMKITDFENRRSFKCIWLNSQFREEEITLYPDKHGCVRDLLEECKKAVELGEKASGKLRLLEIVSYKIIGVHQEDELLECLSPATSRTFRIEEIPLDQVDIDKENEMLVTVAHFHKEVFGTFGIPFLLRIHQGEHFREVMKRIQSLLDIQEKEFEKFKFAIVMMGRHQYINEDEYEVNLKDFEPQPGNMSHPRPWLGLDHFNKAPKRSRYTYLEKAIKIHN
Chain of MAP1LC3C ATG8 domain (human) (Q9BXW4 1-126): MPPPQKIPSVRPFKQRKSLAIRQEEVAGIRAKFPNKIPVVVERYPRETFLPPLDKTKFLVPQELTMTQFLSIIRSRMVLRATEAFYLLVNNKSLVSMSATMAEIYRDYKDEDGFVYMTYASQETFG
Chain of G3BP2 NTF2 domain (human) (Q9UN86 11-133): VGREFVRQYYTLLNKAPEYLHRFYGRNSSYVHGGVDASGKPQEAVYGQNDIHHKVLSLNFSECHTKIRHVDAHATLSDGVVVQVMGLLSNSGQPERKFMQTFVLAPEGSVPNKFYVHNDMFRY

For orientation: IC50 means the concentration needed to halve the response being measured. A higher IC50 goes with weaker potency. Usually Ki stands for a measure of affinity in units of concentration, obtained from inhibition or displacement. Read a low Ki as higher affinity. N peptide 405-419 (Sars-CoV2): in the assay with USP7 (human), the IC50 stood at 1050 µM and the Ki was found to be 150 µM.

In the assay with USP7 (human), NSP3 peptide 2019-2034 (Sars-CoV2) came in with an IC50 of 270 µM and a Ki of 37 µM. In assay [1], the IC50 was 1530 µM and the Ki came out at 210 µM.

Turning to N peptide 12-26 (Sars-CoV2), the IC50 in assay [2] came out at 10 µM; in assay [3] it was 17 µM.
